Data as given in PMC5762688 (Scientific Reports, 2018).

Target: Importin α2/β1 heterodimer (mouse), tagless recombinant, preformed (mouse, UniProt P52293 1-529; P70168 1-876)
Experiment: […]; 10 mM Tris, 150 mM NaCl, 10% glycerol, 0.75 mM TCEP, pH 8.0; […]
Conditions: both partners purified

B1: Hendra virus V protein residues 1-405, tagless recombinant (domain or fragment)
chain: MDKLDLVNDGLDIIDFIQKNQKEIQKTYGRSSIQQPSTKDRTRAWEDFLQSTSGEHEQAEGGMPKNDGGTEGRNVEDLSSVTSSDGTIGQRVSNTRAWAEDPDDIQLDPMVTDVVYHDHGGECTGHGPSSSPERGWSYHMSGTHDGNVRAVPDTKVLPNAPKTTVPEEVREIDLIGLEDKFASAGLNPAAVPFVPKNQSTPTEEPPVIPEYYYGSGRRGDLSKSPPRGNVNLDSIKIYTSDDEDENQLEYEDEFAKSSSEVVIDTTPEDNDSINQEEVVGDPSDQGLEHPFPLGKFPEKEETPDVRRKDSLMQDSCKRGGVPKRLPMLSEEFECSGSDDPIIQELEREGSHPGGSLRLREPPQSSGNSRNQPDRQLKTGDAASPGGVQRPGTPMPKSRIMPIKKG
binding result: binds
